Assay results: patent US20030087827A1
Each block holds one binder with its values, some of them ahead of it. Non-standard residues stand in square brackets, D forms with d.

What was measured:
[1] = target: recombinant truncated mouse furin (mouse) (UniProt P23188); assay: enzyme inhibition, pERTKR-MCA hydrolysis (fluorescence), competitive Ki
[2] = target: proprotein convertase PC2; assay: as above
Chain of proprotein convertase PC2 (P21661 109-637): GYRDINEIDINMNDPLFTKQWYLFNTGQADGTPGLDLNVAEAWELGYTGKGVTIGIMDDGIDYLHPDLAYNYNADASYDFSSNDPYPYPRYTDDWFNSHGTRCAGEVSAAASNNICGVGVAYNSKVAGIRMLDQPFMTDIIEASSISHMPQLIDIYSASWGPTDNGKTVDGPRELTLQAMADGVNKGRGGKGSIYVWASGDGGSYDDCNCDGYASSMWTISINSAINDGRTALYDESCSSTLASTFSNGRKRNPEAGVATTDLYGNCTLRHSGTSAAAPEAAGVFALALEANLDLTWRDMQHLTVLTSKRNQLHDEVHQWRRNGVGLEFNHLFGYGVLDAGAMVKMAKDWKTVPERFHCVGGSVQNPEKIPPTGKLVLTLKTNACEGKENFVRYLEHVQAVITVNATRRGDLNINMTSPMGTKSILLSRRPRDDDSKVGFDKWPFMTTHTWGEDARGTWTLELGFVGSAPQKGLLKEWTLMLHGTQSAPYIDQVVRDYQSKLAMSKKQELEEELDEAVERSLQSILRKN

Chain of recombinant truncated mouse furin (mouse) (P23188 108-714): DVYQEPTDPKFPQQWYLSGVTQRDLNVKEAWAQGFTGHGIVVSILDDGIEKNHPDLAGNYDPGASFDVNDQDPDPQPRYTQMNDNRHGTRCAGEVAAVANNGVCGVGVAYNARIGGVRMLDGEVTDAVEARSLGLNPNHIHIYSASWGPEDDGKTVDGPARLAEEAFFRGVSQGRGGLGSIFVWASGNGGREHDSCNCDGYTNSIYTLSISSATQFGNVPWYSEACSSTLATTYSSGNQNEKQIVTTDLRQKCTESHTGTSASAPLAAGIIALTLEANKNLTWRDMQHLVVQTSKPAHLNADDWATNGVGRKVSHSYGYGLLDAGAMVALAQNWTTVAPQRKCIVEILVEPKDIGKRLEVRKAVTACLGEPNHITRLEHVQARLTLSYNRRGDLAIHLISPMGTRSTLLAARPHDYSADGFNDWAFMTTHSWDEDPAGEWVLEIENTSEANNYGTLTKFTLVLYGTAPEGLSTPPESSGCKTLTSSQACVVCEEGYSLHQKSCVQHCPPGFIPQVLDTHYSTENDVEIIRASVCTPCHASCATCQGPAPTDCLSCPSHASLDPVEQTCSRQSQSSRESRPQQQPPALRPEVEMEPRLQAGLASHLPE

B1: Ac-wrrril-NH2 (peptide)
peptide: Ac-[dW][dR][dR][dR][dI][dL]-NH2
SMILES: CC[C@@H](C)[C@@H](NC(=O)[C@@H](CCCNC(=N)N)NC(=O)[C@@H](CCCNC(=N)N)NC(=O)[C@@H](CCCNC(=N)N)NC(=O)[C@@H](Cc1c[nH]c2ccccc12)NC(C)=O)C(=O)N[C@H](CC(C)C)C(N)=O
Ki [1]: 22.7 µM
Ki [2]: 601 µM

B4: Ac-wrrrrr-NH2 (peptide)
peptide: Ac-[dW][dR][dR][dR][dR][dR]-NH2
SMILES: CC(=O)N[C@H](Cc1c[nH]c2ccccc12)C(=O)N[C@H](CCCNC(=N)N)C(=O)N[C@H](CCCNC(=N)N)C(=O)N[C@H](CCCNC(=N)N)C(=O)N[C@H](CCCNC(=N)N)C(=O)N[C@H](CCCNC(=N)N)C(N)=O
Ki [1]: 2.4 µM
Ki [2]: 334 µM

Further lines, results first:

Ki [1]: 5.3 µM
Ki [2]: 203 µM
B2: Ac-wrrrrl-NH2 (peptide)
peptide: Ac-[dW][dR][dR][dR][dR][dL]-NH2
SMILES: CC(=O)N[C@H](Cc1c[nH]c2ccccc12)C(=O)N[C@H](CCCNC(=N)N)C(=O)N[C@H](CCCNC(=N)N)C(=O)N[C@H](CCCNC(=N)N)C(=O)N[C@H](CCCNC(=N)N)C(=O)N[C@H](CC(C)C)C(N)=O

Ki [1]: 7 µM
Ki [2]: 399 µM
B3: Ac-wrrrir-NH2 (peptide)
peptide: Ac-[dW][dR][dR][dR][dI][dR]-NH2
SMILES: CC[C@@H](C)[C@@H](NC(=O)[C@@H](CCCNC(=N)N)NC(=O)[C@@H](CCCNC(=N)N)NC(=O)[C@@H](CCCNC(=N)N)NC(=O)[C@@H](Cc1c[nH]c2ccccc12)NC(C)=O)C(=O)N[C@H](CCCNC(=N)N)C(N)=O
